Histone H1 kinase specific activity of p34^cdc2 bound to p107 30mer-sepharose, amount of p34^cdc2 associated, relative to that within the immune complexes and IC50 data for 2 substances are collected here from patent US5625031.

Assay [1] deals with p34^cdc2 cell cycle regulatory kinase (Homo sapiens (Human)) (UniProt P06493).
Assay [2] shares this target. The experiment in a line: Western blot densitometry of p34^cdc2 bound to p107 30mer-sepharose against immunoprecipitated p34^cdc2. For orientation: Immunoblotting shows a protein as a band on a membrane.
Assay [3] shares this target. The experiment in a line: IC50 column of Table 1 (ELISA based competition, competitor plate-bound p107 30mer).

For the substance “p107 30 amino acid peptide (residues 692-721 of p107, encompassing alpha-helix II)”, in assay [1], the histone H1 kinase specific activity of p34^cdc2 bound to p107 30mer-sepharose is 1.4%. This substance returned an amount of p34^cdc2 associated, relative to that within the immune complexes in assay [2] of 50 times.
Broadly, the IC50 is the concentration that inhibits the measured activity by half. High values mean weaker potency, low ones greater potency. Take p107 NC5mer pentapeptide (CAFYI): in assay [3], the half-inhibitory concentration (IC50) was 13 µM.
